Experimental data as given in IntAct's records for PubMed 23374343.

B1: Sialic acid-binding Ig-like lectin 10 (Mus musculus), Q80ZE3 (parent)
chain: MSLLLFLLSFLLDGPQGQMESYFLQVQRIVKAQEGLCIFVPCSFSSPEGKWLNRSPLYGYWFKGIRKPSLSFPVATNNKDKVLEWEARGRFQLLGDISKKNCSLLIKDVQWGDSTNYFFRMERGFERFSFKEEFRLQVEALTQKPDIFIPEVLEPGEPVTVVCLFSWTFNQCPAPSFSWMGDAVSFQESRPHTSNYSVLSFIPGLQHHDTELTCQLDFSRMSTQRTVRLRVAYAPRSLAISIFHDNVSVPDLHENPSHLEVQQGQSLRLLCTADSQPPATLSWVLEDQVLSWSSPVGSRTLALELPWVKAGDSGHYTCQAENRLGSQQHTLDLSVLYPPQDLRVTVSQANRTVLEILRNAISLPVLEGQSLCLVCVTYSNPPANVSWAWVTQTLIPIQSSEPGVLELPLVQREHEGEFTCAAQNPLGAQRISLSLSVHYPPQMSSPSCSWEAKGLHCNCSSRAWPAPSLRWRLGEGLLEGNSSNASFTVTFSSLGPWVNSSLSLLQELGPSLWLSCESWNTHGAQTTSVLLLPDKDSATAFSKGAVLGFGITALLALCLIVVIVKTLQKKGTQEEPSRPKLSRGSTILDYINVVPKTRSLARNWKAEPDAPSRSSPLDTHFPKPKKKQKDPHFTYPGCPDPTSSSQVPVSENNPEELHYAALNFSRLRLQETQDPQDTYSDYTEVRVH
partner: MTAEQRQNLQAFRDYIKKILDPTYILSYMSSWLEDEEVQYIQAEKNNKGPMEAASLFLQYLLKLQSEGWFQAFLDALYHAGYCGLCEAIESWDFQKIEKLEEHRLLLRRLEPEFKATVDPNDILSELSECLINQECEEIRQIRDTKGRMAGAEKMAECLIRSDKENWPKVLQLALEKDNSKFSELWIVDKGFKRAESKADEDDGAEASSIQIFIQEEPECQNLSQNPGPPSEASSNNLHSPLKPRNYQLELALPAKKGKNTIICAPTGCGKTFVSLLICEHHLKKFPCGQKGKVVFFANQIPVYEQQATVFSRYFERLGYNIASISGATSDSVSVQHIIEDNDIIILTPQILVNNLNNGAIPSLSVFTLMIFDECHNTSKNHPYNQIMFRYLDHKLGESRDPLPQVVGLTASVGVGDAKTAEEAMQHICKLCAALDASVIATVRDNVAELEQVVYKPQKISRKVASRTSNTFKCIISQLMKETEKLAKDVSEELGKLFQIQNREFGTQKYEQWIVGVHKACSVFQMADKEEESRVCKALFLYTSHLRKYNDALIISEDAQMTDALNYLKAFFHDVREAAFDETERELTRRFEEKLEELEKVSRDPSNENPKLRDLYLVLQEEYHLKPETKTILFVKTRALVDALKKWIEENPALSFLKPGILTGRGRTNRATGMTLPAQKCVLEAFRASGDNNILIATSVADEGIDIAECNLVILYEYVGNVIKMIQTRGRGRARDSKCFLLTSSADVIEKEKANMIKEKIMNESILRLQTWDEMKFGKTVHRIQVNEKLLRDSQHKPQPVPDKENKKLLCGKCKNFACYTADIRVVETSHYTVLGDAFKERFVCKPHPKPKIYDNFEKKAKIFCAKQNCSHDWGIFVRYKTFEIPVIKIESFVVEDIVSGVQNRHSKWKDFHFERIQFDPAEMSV

Variants of: B1
Details: with rigi_mouse Rigi

effect of a mutation on the interaction	Variant
decreasing interaction strength	Y590F;Y635F;Y659F;Y679F
